Experimental findings from the nanobody polyreactivity screen of Harvey et al. (2022) are described below.

This series can be described thus: yeast display, Sf9 membrane polyspecificity reagent, FACS + sequencing; frameworks hold sequencing errors. The gist of the method: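 A nanobody's polyreactivity label depends on the gate it was sorted from. Yeast display cells were stained with 10% biotinylated, detergent-solubilized Sf9 membrane reagent for 1 hour at 4 °C, enriched on streptavidin microbeads and sorted by FACS. The low and high (top ~1%) gates were set on anti-HA fluorescence for expression and streptavidin fluorescence for reagent binding.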
As for “QVQLVESAGGLVQAGGSLRLSCASSGSTFQKYAMGWYRQAPGKESELVARISSGGSTTNADYVKGRFTISRDNAKYTVYIQMTSLKPEDTAVYYCAARLVVAQPHQWVVYLNTYYYWGQGTQVTVSS”, the “polyreactivity (PSR sort gate)” value is “high polyreactivity”.
The result for “QVQLVESAGGLVQAGGSLRLSCDASISSINAMGWYRQAPGKEREMVAAIRWSGSSTYYADSVKGRFTISRDNAKNTVYLQMNSLKPEDTAVYYCAARWYARSLTRFNYWGQGTQVTVSS” reads “high polyreactivity”; that for “QVQLVESAGGLVQAGGSLRLSCYASGRIFPAYAMGWYRQAPGKERELVASIRRGGITYADSVKGRFTISRDNAKNTVYLQMNSLKPEDTAVYYCNADSRGWGYHMDYWGQGTQVTVSS”, “low polyreactivity”; that for “QVQLVESAGGLVQAGGSLSLSCAASGILVYNAMGWYRQAPGKQRELVAAISARGGRTYYADSVKWRFTISRDNAKNTVYLQMNSLKTEDTAVSYCATLETTGVNYWGQGTQVTVSS”, “high polyreactivity”.
The result for “QVQLVESAGGLVQAGGSLSLSCAASGLTFPWYAMGWYRQAPGKERELVAAISSSSGSTYYADSVKGRFTISRDNAKNTVYLQMNSLKPEDTAVYYCAAGYPGGHYDYWGQGTQVTVSS” reads “high polyreactivity”; that for “QVQLVESAGGLVQAGGSLSLSCAATGITFPYVMGWYRQAPGKQRELVAAISRTGTSTYYADSVKGRFTISRDNAKNTVYLQMNSLKPEDTAVYYCAARTQTQVYPAYGYWGQGTQVTVSS”, “high polyreactivity”.
Regarding “QVQLVESAGGLVQAGGTLRLSCAATGRIVYLNAMGWYRQAPGKERELVAAISGSTGSTYYADSVKGRFTISRDNAKNTVYLQMMSLKPEDTAVYYCNAGGVYDEFNYWGQGTQVTVSS”, the “polyreactivity (PSR sort gate)” value is reported as “low polyreactivity”.
With “QVQLVESAGGLVQAGVSLRLSCAASGSIYPGSAMRWYRQAPGNERELVAAITFGGGITYYADSVKGRFTISRDNAKYTVYLQMNSLKPEDSAVYYCAAKSPRILLDYWGQGTQVTVSS”, the “polyreactivity (PSR sort gate)” value was “low polyreactivity”.
On to “QVQLVESAGGVVQAGGSLRLSCAPSGRTFYPYVMGCYRTAPGKERELVARIRWSGSSTYYADSEKGRFTISRDNAKNTVYLQMNSLKPEDTAVYYCNARPSWYVFGSSVHSGMGYWGQGTQVTVSS”, for which the “polyreactivity (PSR sort gate)” value is “high polyreactivity”.
With “QVQLVESAGRLVQAGGSLRLSCDASGSTFKGYPIGWYRQAPGKERELVAAISRRGGSTYYADSVKGRFTISRDNAKNTVYLQMNSLKPEDTAVYYCAKEGQLRYDYWGQGTQVTVSS”, the “polyreactivity (PSR sort gate)” value was “high polyreactivity”.
The result for “QVQLVESARGLVKAGGSLLLSCAAYVSIFNHYAMGWYRQAPGKESELVARITNRSGNTYYADSVKGRFTISRDNAKNTGYLQLNSLKGEDTEVYYCAATKSLGRYNMDYWGPGTQVTVSS” reads “low polyreactivity”; that for “QVQLVESAVGLVKAGGSHRLSCAASASTFYLNARGWYRQAPGKEREFVAAIRGGGTSKRYADSVKGRFTISRDNATNTVYLQMNILKPEDSAVYYCAAGRGGHRYKVGYWGLGTQVTVSS”, “high polyreactivity”; that for “QVQLVESAVGLVQAGGSLRLSCAASGTTFVRYAMGWYRQAPGKEREFVAASSKSGGSTYYADSVKGRFTISRDNAKNPVYLQMNSLKPEDTAVYYCATRTTYGQSGSAGPRPSNYWGQGTQVTVSS”, “low polyreactivity”.
Regarding “QVQLVESCGCLVQAGGSLRFSCAASGNTFRRNVMGWYRQAPGKEREMVAAINRGGSTTYADSVKGRFTISRDNAKNTVYLQMNSLKPEDTAVYYFNDRTLFKWRHGHYYAYDYWGQGTQVTVSS”, the “polyreactivity (PSR sort gate)” value is “high polyreactivity”.
As for “QVQLVESCGGIVQAGGSLRLSCAASGSILRSNSMGTYRQAPGKERELVAAISSRGGSTYYADSVKGRFTISRDNAKNTVYLQMNSLNPEDTAVYYCNKASYTVISYDEYDYWGQVTQVTVSS”, the “polyreactivity (PSR sort gate)” value is recorded as “high polyreactivity”.
As for “QVQLVESCGGLDQAGGSLRLSCAASGRIFYAYAMGWYRQARGKERELVAAITSSGGRTYYADSVKGRFTISRDNAKNTVYLQMNSLKPEDTAVYYCAAYDYWGQGTQVTVSS”, the entry is “low polyreactivity”.
The result for “QVQLVESCGGLVQAGASLRLSCAASGSTFYDNVMGWYRQAPWKERELVAAITWRGGSTYADSVKGRFTISRDNAKNTVYLQMNSLKPEDTAVYYCNADDDYQQYLGDYWGQGTQVTVSS” reads “low polyreactivity”.
As for “QVQLVESCGGLVQAGGILRLSCAAYGRTFYKNAIGWYTQAPGKERELVAAMSSRGGRTTYADSVKGRFTISRDNAKYTVYLQMTSLKPEDTAVYYCAADWAQVYHGTPKYYYWGQGTQVTVSS”, the entry is “high polyreactivity”; as for “QVQLVESCGGLVQAGGSLRLRCAASGRIIRKYVMAWYRQAPGKERELVAAITGGGSTYYADSVKGRFTISRDNAKNTVYFQKNSLKPEDTAVYYCAADRQSAAHRLWGSEYGYWGQGTQVTVSS”, “high polyreactivity”.
“QVQLVESCGGLVQAGGSLRLRCAASGSIFSGYVMVWYRPAPGKERELVAAISGSGGSTYYADSVKGRFTISRYNAKNTVYLQMNSLKPEDTAVYYCNVDRSPTHIVGYGYWGQGSQVTVSS”: the “polyreactivity (PSR sort gate)” value is listed as “low polyreactivity”.
Turning to “QVQLVESCGGLVQAGGSLRLSCAASGFTFLGYAMGWYRQAPGKERELVAAITSGDSTDYADSVKGRFTISRDNAKNTVYLQMNSLKPEDTAVYYCNAELGSAYEYWGQGTQVTVSS”, the “polyreactivity (PSR sort gate)” value is given as “low polyreactivity”.
The result for “QVQLVESCGGLVQAGGSLRLSCAASGFTFVYYAMGWYRKAPGKEREFVAAISKSGGSTYYADSVKGRFTISRDNAKNTVYLQMNSLKPEDTAVYYCAARSYQGTSSGRVTRRYDYWGQGTQVTVSS” reads “high polyreactivity”; that for “QVQLVESCGGLVQAGGSLRLSCAASGLIFIYNAMGWYRQAPGKERELVAAISRSGGRTYYADSVKGLFTISRDNAKNTVYVQMNSLKPEDTEVYYCATDASTYAYYGGDYWGQGTQVTVSS”, “low polyreactivity”.
On to “QVQLVESCGGLVQAGGSLRLSCAASGRIFNHNAMGWYRQAPGKEMKLVAAISWRGGSTYYADSVKGRFTISRYNAKNTVYLQRNSLKPEDTAVYYCATKPSPITYKLDYWGQGTQVTVSS”, for which the “polyreactivity (PSR sort gate)” value is given as “high polyreactivity”.
For the sequence “QVQLVESCGGLVQAGGSLRLSCAASGRIFPYNAMGWYRQAPGKERELVAAIDWRDNTYYADSVKGRFTISRDNAKNTVYLQMNSLKPEDTAVYYCNVDYTDYFLNKYDYWGQGTQVTVSS”, the “polyreactivity (PSR sort gate)” value is given as “low polyreactivity”.
Take “QVQLVESCGGLVQAGGSLRLSCAASGRTFGYYAMGWYRQAPGNERELVAAISRGGRTNYADSVKGRFTISRDNAKNTVYLQMNSLKPEDTAVYYCAKSGTIPRYTASYSLLDYWGPGTQVTVSS”: the “polyreactivity (PSR sort gate)” value is listed as “low polyreactivity”.
In the case of “QVQLVESCGGLVQAGGSLRLSCAASGSTFTVNAMGWNRQAPVKERELVDAITQSRGSTSYADSVKGRFTISRDNAKNTVYVQMNSLKPEDTAVYYCNAQRGVRSRKSYRRQFDYWGHGTQVTVSS”, the “polyreactivity (PSR sort gate)” value is given as “low polyreactivity”.
As for “QVQLVESCGGLVQAGGSLRLSCAATGSTIRTYAMGWYRQAPGTERELVAAISRSGGRTYYADSVKGRFTISRDNAKNTVYLQMNSLTPEDTAVYYCAKVSQRRVDTSDYDYWGQGTQVTVSS”, the entry is “high polyreactivity”.
As for “QVQLVESCGGLVQAGGSLRLSCAGSGSTFVYYAMGWSRQAPGQERELVAAISRSGGSTYYADSVKGRFTISRDNAKNTVYLQMHSLKPEDTAVYYCNKYAIFPAYRYPRSDYWGQGTQVTVSS”, the entry is “high polyreactivity”.
As for “QVQLVESCGGLVQAGGSLRLSFAASGSTFGYYTMGWYRQAPGKERELVAAISWSGGSTYYADSVKGRFTISRDNAKNTVYLQMNSLKPEDTAVYFCAALGYTYKYYSYYWGQGTQVTVSS”, the entry is “high polyreactivity”; as for “QVQLVESCGGLVQAGGSLRLTCAASGSTFTIYAMGWYRQAPGKERELVAVISSSGGSTYYADSVKGRFTISRDYAKNTVYLQMNSLKPEDTAVYYCAADTRYFGGYLTLYYWGQGTQVTVSS”, “low polyreactivity”.
In the case of “QVQLVESCGGLVQARGSLRLSCAASGRTIDSYAMGWYRQAPGKERELVAAITSGVSTYYADSVKGRITISRDNATNTVYLQMNSLQPEDTSVYYCARKHAIWRGYDFWGQGTQVTVSS”, the “polyreactivity (PSR sort gate)” value is on record as “low polyreactivity”.
For the sequence “QVQLVESCGGLVQAVGSLRLSCAASGIIIGYNAIGWYILAPGKEREFVAAISGYGGSTRYADSVKGRFTISRDYGKNSVYLQMNSLKPEDTAVYYCAARSRYCYITFDYWGQGTQVTVSS”, the “polyreactivity (PSR sort gate)” value is given as “high polyreactivity”.
As for “QVQLVESFGGLVHAGGSLRLSCAASGFTFTSYTMGWYRQAPGKEREMVAAITNTGGSTYYADSVKGRFTISRDNAKNYVYLQMNSLKQEDTWVYYCAARTHIYGKFWRFYWGQGTQVTVSS”, the entry is “low polyreactivity”; as for “QVQLVESGAALVQAGGSLRLSCAASGFTFFTYAMGWYRQATGKDSELVAAITSSGGSTYYADSVKGRFTISRDNAKNTVYLQMNSLNPEDTAVYDCAASVYFWYDYWGQGTQGTVSS”, “high polyreactivity”; as for “QVQLVESGAGIVQAGGSLRLCCAATGITFDFYAMGWYTQAPGKERELVAAISYSGTSTSYADSVKGRFTISRDNAKNTVYLQMNSLKPEDTAVYYCNARIGWTHSYYELDYWGQGTQVTVSS”, “low polyreactivity”.
As for “QVQLVESGAGLVHAGGSLRFSCAPSGIIIYRYAMGWYRQAPGKERELVAGISQRGGNTYYADSVKGRFTISRDNEKNTVYLQMYSLKPEDTAVYYCAAPYYGTRTNNRHEYWGLGTQVTVSS”, the entry is “high polyreactivity”.
As for “QVQLVESGAGLVHAGGSLRLSCAASGSTFSPYAMGWYRQAPGKESELVAAITSSGGSTYYADSVKGRFTISRDNAKNTVYLQMISLKPEDTALYYCAAVGYYTSTYDLYDYYYWGQGTHVTVSS”, the “polyreactivity (PSR sort gate)” value was “low polyreactivity”.
The result for “QVQLVESGAGLVKAGGILRLSCAASGFTFYGYAMGWYRQAPGKERELVAAITFRGDRTYYADSVKGRFTISRDNAKNTVYLQMNSLIPEDTAVYYCAAERPSGWYSYLSLYIVRRGYWGQGTQVSVSS” reads “low polyreactivity”.
The result for “QVQLVESGAGLVKAGGSLRLSCAASGFSFQRNAMGWYRQAPGKERELVAAINRSGGRTYYADSVKGRFTISRDNAKYTVYLQMNSLKPEDTAVYYCAADSTYEYYFWGQGTQVTVSS” reads “high polyreactivity”.
